# From PMC3138754, “α-SNAP Prevents Docking of the Acrosome during Sperm Exocytosis because It Sequesters Monomeric Syntaxin” (PLoS ONE, 2011)
# B1: α-SNAP-M105I (natural protein, UniProt P81125 1-295, looked up)
# chain: MDNSGKEAEAMALLAEAERKVKNSQSFFSGLFGGSSKIEEACEIYARAANMFKMAKNWSAAGSAFCQAAHVHLQLQSKHDAATCFVDAGNAFKKADPQEAINCLIRAIEIYTDMGRFTIAAKHHISIAEIYETELVDIEKAIAHYEQSADYYKGEESNSSANKCLLKVAGYAAQLEQYQKAIDIYEQVGTNAMDSPLLKYSAKDYFFKAALCHFCIDMLNAKLAVQKYEELFPAFSDSRECKRIKKLLEAHEEQNVDSYTEAVKEYDSISRLDQWLTTMLLRIKKTIQGDEEDLR
# notes: α-SNAP with the point mutation M105I that occurs in hyh mice; pET28 plasmid from P. Hanson; called one of the three full length proteins; also called M105I mutant; the mutant of the hyh mouse; source: E. coli BLR(DE3), pET28 plasmid, purified (Ni-NTA, native conditions)
# Target: T1, syntaxin1 (1–262), cytosolic domain (UniProt P32851 1-262)
# T1 construct: syntaxin1 residues 1-262 (cytosolic domain); pET28a plasmid from D. Fasshauer; rat syntaxin 1A is surmised from the source of the plasmid; also called syntaxin 1–262; cytosolic domain of syntaxin1; source: E. coli BLR(DE3), pET28a plasmid, extracted in 6 M urea, purified on Ni-NTA with renaturing during the washing step
# Test: co-IP; 0.9 µM syntaxin 1-262 with 1, 2.5 or 5 µM α-SNAP wild type or M105I, NSF and ATP omitted; anti-syntaxin immunoprecipitation, anti-α/β-SNAP blot, densitometry normalised to syntaxin
# Settings: both partners purified
# T1 sequence (P32851 1-262): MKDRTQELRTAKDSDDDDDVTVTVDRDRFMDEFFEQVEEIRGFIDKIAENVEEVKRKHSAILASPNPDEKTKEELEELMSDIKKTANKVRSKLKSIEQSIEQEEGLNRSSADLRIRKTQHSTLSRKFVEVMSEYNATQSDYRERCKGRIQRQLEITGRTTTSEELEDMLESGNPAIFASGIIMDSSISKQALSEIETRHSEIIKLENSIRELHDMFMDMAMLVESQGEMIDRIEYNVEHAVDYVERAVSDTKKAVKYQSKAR
binder,measurement,value
B1,fold amount recovered with syntaxin against the wild type,2 fold
